Entries after “also recorded” stand apart in the source; their conditions may differ.

From patent US20040115188A1, “Enzyme with proteolytic activity” (priority 2000, published 2004) come the findings set out here.

One series has as its system Pra1. Put plainly: Inhibition of proteolytic activity of Pra1 by specific inhibitors. The series is classed as biochemical, T. harzianum. To be noted: 1 mM inhibitor, preincubation 30 minutes at 30° C., pH 7.5. How it is done:
In order to determine the catalytic type to which Pra1 belongs, specific inhibitors were used of the different known catalytic mechanisms. The effect of said inhibitors on the activity of Pra1 was analysed by preincubating the enzymatic solution for 30 minutes at 30° C. in 100 mM phosphate buffer pH 7.5 with said specific inhibitors of different known catalytic mechanisms:
1 mM PMSF (100 mM initial solution in isopropanol),
1 mM EDTA (100 mM initial solution in water),
0.1 mM Pepstatin (10 mM initial solution in DMSO),
1 mM Iodoacetamide (100 mM initial solution in water, prepared at the time of use).
In parallel to the enzymatic assay, controls were also performed in the presence of organic solvent in which the inhibitor was dissolved. The residual activity was determined by the percentage of activity in absence of inhibitor.

Series [1] can be described thus: Endopeptidase activity on synthetic peptide substrate for trypsins. The series is classed as biochemical. To be noted: optimum conditions of activity (30° C. and pH 7.5); 1 U = 1 nmol p-NA per minute. On the procedure: (§1) Taking into account the information obtained in Example 3.2, the endopeptidase activity of Pra1 on 3 synthetic peptides (Sigma) is assayed with the amino and carboxyl terminals blocked, with allows the different types of activities to be differentiated within the S1 family of peptidases:
N-acetyl-Ile-Glu-Ala-Arg-pNA (Arg-pNA) for trypsins,
(§2) The enzymatic solution (75 ng) was prepared in 90 μl of 100 mM sodium phosphate buffer and preincubated for 5 minutes at 30° C. The reactions were initiated by addition of 10 μl of preheated 10 mM substrate solution (prepared from 100 mM solutions in DMSO stored at −20° C.). After 20 minutes of incubation, the reactions were stopped by addition of 50 μl of 2% (v/v) acetic acid. Then, the absorbance of 100 μl at 405 nm was measured in microtitre plates with 96 wells (Inmunoplate Maxisorp, NUNC) using a Titertek Multiskan Plus 311 A0 (Flow Laboratories) automatic reader, and the nmoles of p-nitroaniline (p-NA) released per minute were calculated. In parallel, enzyme blanks with no substrate and substrate without enzyme were also processed. The standard calibration line was constructed with solutions of para-nitroanaline (p-NA) (Sigma) at known concentrations (0-1.25 mM) prepared from an initial 5 mM solution. This solution was prepared by dissolving p-NA beforehand in a minimum volume of ethanol.

The nature of series [2]: Endopeptidase activity on synthetic peptide substrate for elastases. The series is classed as biochemical. The following applies: 1 mM substrate, 30° C., 20 minutes. On the procedure: as §1
N-succinyl-Ala-Ala-Pro-Leu-pNA (Leu-pNA) for elastases, and
as §2

Series [3] is described as follows: Endopeptidase activity on synthetic peptide substrate for chymotrypsins/subtilisins. To be noted: 1 mM substrate, 30° C., 20 minutes. The series is classed as biochemical. How it is done: as §1
N-succinyl-Ala-Ala-Pro-Phe-pNA (Phe-pNA) for chymotrypsins/subtilisins (this latter belongs to the S8 family).
as §2, with “This solution was prepared by dissolving p-NA beforehand in a minimum volume of ethanol.” left out

A short description of series [4]: Determination of kinetic parameters Km, Kcat, Kcat/Km (Lineweaver-Burk). The series is classed as biochemical. The following applies: Arg-pNA 0.05-2 mM, 30° C., pH 7.5. On the procedure:
The determination of the kinetic parameters Km, Kcat, and Kcat/Km was performed from the initial rates calculated in assays with different concentrations of substrate (0.05-2 mM). For this, the substrate was prepared in 0.99 ml of 100 mM sodium phosphate buffer pH 7.5 and preincubated at 30° C. Then the reaction was started by the addition of 10 μl of the purified proteases Pra1 (2.5 ppm) preheated to the same temperature. The activity was monitored for 10 minutes in a Shimadzu UV-160A spectrophotometer at 405 nm kept at 30 ? C by a thermostatA unit of activity represented the release of one 1 nmol of p-NA per minute in the assay conditions. Solutions of enzymes without substrate, and substrate without enzyme were prepared as blanks. The standard calibration curve was constructed with solutions of p-NA (Sigma) at known concentrations (0-200 μM), prepared as indicated above. The kinetic parameters were calculated from representations of double reciprocals or by Lineweaver-Burk (1/V vs 1/S).

A short description of series [5]: Effect of temperature on the activity of Pra1. The format is biochemical. How it is done: In order to determine the optimum temperature for activity of Pra1, the enzymatic assay was performed over a range of temperatures comprised between 30° C. and 85° C. The effect of temperature on the stability of Pra1 was determined by preincubating the enzymatic solution in 100 mM sodium phosphate buffer pH 7.5 for 20 minutes at different temperatures (30-85° C.). The substrate used in these assays was the synthetic peptide N-acetyl-Ile-Glu-Ala-Arg-pNA, specific for trypsins.

Series [6] in a line: Effect of pH on the activity of Pra1. The format is biochemical. On the procedure:
(§3) For the determination of the optimum pH for activity of Pra1, the assay was carried out in the following buffer systems: 100 mM sodium acetate (pH 3-5.5), 100 mM sodium phosphate (pH 6-7), and 100 mM Tris/HCl (pH 7.5-9). The effect of pH on the stability of Pra1 was determined by pre-incubating the enzymatic solution (750 ng) for 24 hours at 4° C. in […] of the aforementioned buffers. Then, aliquots of 10 μl were taken for performing the assay in standard conditions.

The format of series [7] is physicochemical. The following applies: preincubation 24 hours at 4° C. How it is done:
as §3
The activity decreased as the pH of preincubation increased, with a reduction of 40% at pH 7.

A short description of series [8]: Isoelectric point by chromatofocussing. To be noted: observed. The series is classed as physicochemical. How it is done: The purification of enzymes with proteolytic activity obtained from the protocol described in Example 1 was performed from the culture filtrate of T. harzianum CECT 2413 kept for 48 hours in a MM medium with cell walls of C. acutatum as the carbon source. To do this, 2 ml of filtrate dialysed and concentrated 75 times were submitted to chromatofocussing to separate proteins on the basis of their isoelectric point. The elution profiles obtained show two peaks of proteolytic activity on azocasein, one eluted at basic pH, coinciding with the main protein peak, and another at acid pH.

Consider `NC(=O)CI` [iodoacetamide, Iodoacetamide], for which, in the series on Pra1, the “effect on the lytic activity of Pra1” value is recorded as “weak effect”.

For `O=S(=O)(F)Cc1ccccc1` [PMSF], the “effect on the lytic activity of Pra1” value with Pra1 is “drastically inhibited”.

B1: Pra1: enzyme derived from T. harzianum with proteolytic activity, trypsin type serine-endopeptidase, amino acid sequence SEQ. ID. NO.: 1 (protein, listed as Trichoderma harzianum)
chain: MAPVLAIASVLAALPALTMGAAITPRGSDIVGGTTAALGEFPYIVSLSTGGSHFCGGVLIDSRTVVTAGHCTIDQRASSVKVRAGTLTWASGGTQVGVSSLTLHPSYTVDSQGVPDNDVGVWHLATAIPTSSTIGYATLPASGSDPAAGTTLTVAGWGTTSENSNSLPSTLRKVSVPVVARATCDSDYDGEISNNMFCAAVAAGGKDSCSGDSGGPIIDPSGTLVGVVSWGQGCAERGFPGVYTRLGNYVSFINSNRG
For B1, the “specific activity on Arg-pNA” value in series [1] is 94,800 U/mg. In addition, in [2], the “lytic activity on Leu-pNA (elastase activity)” value is “No lytic activity; also recorded: does not have activity”. For the same molecule, in series [3], the “lytic activity on Phe-pNA (chymotrypsin/subtilisin activity)” value is “No lytic activity; also recorded: does not have activity”. Further, in series [4], the Kcat came out at 39.64 s⁻¹ and the Km (commonly the concentration of substrate that gives half-maximal velocity) was 220 µM. Moreover, the “activity at 30° C.” value in series [5] (30° C.) came to 95%. In series [5] (45° C.), the “activity at 45° C.” value came out at 16%. The “activity above 55° C.” value in series [5] (above 55° C.) was “no activity was detected”. Besides, the “optimum temperature for activity” value in [5] (pH 7.5) is roughly 35 °C. The “optimum pH for activity” value in [6] stood at 7.5. In addition, the “activity in buffers with pH greater than 8.5 or less than 6.5” value in series [6] (pH greater than 8.5 or less than 6.5) is reported as “decreased rapidly”. For the same molecule, the “reduction of activity after preincubation at pH 7” value in [7] (pH 7) was 40%. The “proteolytic activity after preincubation at pH 9” value in [7] (pH 9) was “No proteolytic activity was detected”. Moreover, the “isoelectric point (Ip)” value in series [8] is 4.7-4.9.
